No end group written: not given here.

Common to all, as to assay: AVEXIS screen signal:noise (double-corrected)
One test deals with ADP376.
In a further test the target is T1, ADP341.
T1 chain: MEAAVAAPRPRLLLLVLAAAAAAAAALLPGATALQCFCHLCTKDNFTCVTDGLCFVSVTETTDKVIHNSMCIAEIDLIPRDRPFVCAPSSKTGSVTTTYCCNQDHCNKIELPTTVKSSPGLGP

The next test concerns the target T2, ADP389.
T2 chain: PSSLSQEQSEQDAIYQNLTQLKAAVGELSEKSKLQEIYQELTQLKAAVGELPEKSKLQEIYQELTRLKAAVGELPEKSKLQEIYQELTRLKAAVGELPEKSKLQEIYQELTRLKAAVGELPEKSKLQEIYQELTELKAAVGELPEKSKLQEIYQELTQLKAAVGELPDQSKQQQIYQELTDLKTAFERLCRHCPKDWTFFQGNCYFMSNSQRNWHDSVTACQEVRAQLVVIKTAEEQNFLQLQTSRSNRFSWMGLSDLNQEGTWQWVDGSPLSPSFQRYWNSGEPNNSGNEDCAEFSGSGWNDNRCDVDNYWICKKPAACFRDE

The next test addresses T3, ADP269.
T3 chain: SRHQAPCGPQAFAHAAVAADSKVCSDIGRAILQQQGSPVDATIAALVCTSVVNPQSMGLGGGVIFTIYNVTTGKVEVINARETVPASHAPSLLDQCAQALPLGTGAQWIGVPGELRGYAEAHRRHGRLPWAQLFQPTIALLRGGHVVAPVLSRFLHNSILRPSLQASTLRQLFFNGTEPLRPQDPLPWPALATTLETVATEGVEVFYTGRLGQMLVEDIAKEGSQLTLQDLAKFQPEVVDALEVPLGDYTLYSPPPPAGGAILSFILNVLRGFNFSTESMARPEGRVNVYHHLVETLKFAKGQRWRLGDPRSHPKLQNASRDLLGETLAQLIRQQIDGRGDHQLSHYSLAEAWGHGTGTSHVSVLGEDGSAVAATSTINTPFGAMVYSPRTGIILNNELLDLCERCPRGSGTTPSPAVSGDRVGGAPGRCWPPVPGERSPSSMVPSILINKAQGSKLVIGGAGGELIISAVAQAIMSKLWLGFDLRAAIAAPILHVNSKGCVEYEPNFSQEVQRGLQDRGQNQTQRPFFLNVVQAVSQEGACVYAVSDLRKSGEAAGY

A further test concerns the target T4, ADP156.
T4 chain: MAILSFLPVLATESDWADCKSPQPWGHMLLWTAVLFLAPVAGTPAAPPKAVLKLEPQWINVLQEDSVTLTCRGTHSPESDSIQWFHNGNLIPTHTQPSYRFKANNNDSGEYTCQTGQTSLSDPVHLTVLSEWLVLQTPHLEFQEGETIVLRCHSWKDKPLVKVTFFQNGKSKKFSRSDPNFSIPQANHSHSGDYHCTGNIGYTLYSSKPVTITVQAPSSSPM

Another test addresses ADP369.
For another test, the target named is T5, ADP098.
T5 chain: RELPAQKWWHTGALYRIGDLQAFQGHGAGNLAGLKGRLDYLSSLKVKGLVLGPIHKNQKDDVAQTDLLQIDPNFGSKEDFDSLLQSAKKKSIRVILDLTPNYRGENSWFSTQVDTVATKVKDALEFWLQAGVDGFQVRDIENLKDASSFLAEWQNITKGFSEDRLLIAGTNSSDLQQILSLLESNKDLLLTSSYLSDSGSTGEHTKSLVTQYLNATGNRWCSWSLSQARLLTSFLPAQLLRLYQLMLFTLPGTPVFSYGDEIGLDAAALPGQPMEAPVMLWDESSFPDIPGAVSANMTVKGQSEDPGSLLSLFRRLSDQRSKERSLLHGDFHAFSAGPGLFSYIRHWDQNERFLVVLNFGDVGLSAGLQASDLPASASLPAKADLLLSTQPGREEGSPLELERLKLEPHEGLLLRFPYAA

B1: ADP398 (protein)
chain: SNHIKSVNRCFIPFISEYIYKQKNRKNNIAYDSSNSHYNDKIIPCGNYNKQLKYKINFCRNLYFNNKNEYNRICSRNKLNFHNIQTDNTIYKPKKKYYEVGKVREKIKMYTLFKDDKINTLKCNEEESVTSETINKHDSSVKVKGRRKKNIASNENIMNPNNKAVSSINTNLADSSNNKNDNSLNSKKNDNTLNSKKNDNTLNSKKNDNTLNSKNNNNALNSKNNNNALNSKKSNNAYNDKHIDHIIPEGKNKINNNIDVKHNINNKLNEINEEPYEDTHNKEENSANKNDNDEKRKEENNNIARRYIKNDQMSYNNINTNSNEYDKNAATLDETYIGKTFEGYVYSVNKNAACIKLKNINKYGLLFKNKANLGDDIEDMNDFFEKDQPVHVKILGINTKKNIFYLGNIIKYNENIKLSKGEYSKGLITKVCDSYCFIKVLKNGATGYLHKSKLFCMNDKEKKNNDNQNYDNPNNDNPNYDNQNYDNQNYNNPNYDHPNYDNQNYDNQNYNNPNNDYSTSQLYNSDNLQMDFIYKLQFTKIFNIWDIIDVEILGTPQNDYKSNYILTIPRGSKTFKKILNYLNVLKENEDINNIQYKGDYIYSIDNNKNDNIIDSDINNHHINNKKKKKNLYDIQNNMNHAPFNKFHTEDEYLFNDHVQENVHTFYEKNKKYKITYDKENNHKMNKAYYLKKNKELPFNNKFKKIIKNIYDLPNTISLSMLSKTIKIPLASIKKYFIIHENKEYNSAYKINSEQIKRICQHFKIDCNVEQRDDNVVTKVNGATKDCQEKVFKNVAQDRLKEGEQERVIKVEAKIKNDEMVMQEQKDTKEEKHMDVQFIEEKDINVQHINVQDMDVQDMDVQDINVQDMDVQNINVQDINIQDMDVQNINNAITLNKATSCQTDESRDAPGGDQNEALDEKDSMEKSKEKKKKKGKSRKKNKDTNLALKSDSIQKSKTTLDDKKRNVVVTFIGHINHGKTSLFDYICKTNEQKKEYGLITQNIRAFKATVRNNFAFTLVDTPGHEAFMPMRSRGVKISDLSILVISGDEGIQEQTVECIKLIKEFNIKIIIAITKVDIPNVDVDRIINDLLYHDITTELNGGEIQVVECSIYKEESIDKLLDAIYLESEFLNLQTNPDKKHEQAQGVVLDSYIDKNGIVSINLLQNGVLNINDHFYTGSSYGKVKILKDHLNKNIKSAYPSDPIKIIGYNKNSVPVAGDKFYVVENEALAKEIAEHNKNKMLTMEINNFAYDQTNMNRYKDFIISRENKIGGSSGILGENNLKNDIDGNMARDDNMARDDNMASDDNMARDGNRANNDNIASDDNMANDYDKIKETKMYTNNKAFQKDDFLKIHLNNANENVINMDPSTHIGKNEIKTIYSNYIIKCDKQGSIEVLKNCMLKLQKEDSICKIKNKIIYADIGNVASSDIKYATSFNAAIIAFGVKLSNDIKGSKNSKGSKNHNNYPIIYSNVLYELIENVEKEMEKKLSKKPMGELKGTAQILKVFNIAKLGKVAGCIVKKGTISINSNIRILRNDKVIYMGKIISIKIVKEEKTQVTEADECGIGFDNFLDFEPNDIIEAYEN
modifications: bait human Fc-tagged dimer; N-glycosylation sequons mutated in Plasmodium baits
In the test with ADP376, B1 returned a binding score of 10.1.

For the molecule MNEAKEEKTNMRNNHLSRVTIEILPSDEDNDIFDINDALLDELIGINNI (also: human Fc-tagged dimer) [ADP256], the binding score in the test with ADP341 came to 32.7.

B2: ADP236 (protein)
chain: EFVKGSYESKGYPLIHLMNNNEYTGSANNFIKNNLINLLYIYKDVKFDEEKTLGIDSFLDIEDDTKIERLIKEKMLYINKYINSRQMIKYSGFIYLYEIIEKKNFYFLLHFLMTNNNNGLIIILPEDMYINVDEYYRINKINKLNDQNKKNKVVSQDLLEKRIMFVQSLILNMKLQQSIYFIKNNKDIEKIYENYQSKFAYFDLTRNVAISPISKIQNVYKMNSKSLYYFLNKNNNIHINTIFNKQQDNQAFLLTKQKTIIICADFNVFNIFSDLPSNTAFTNSNLITIQNLIKLFYDVYNKEQVNYNILFFFTNYYYGIQDFLNSINVIFKENIEFVICLDNLNNADFYIYESNKAQPQNVQAFYRILNNIVKGSIKKNVQMVNEKIKIHSKHLPSLHEYFVLNKINSFSLSSSKKNNNMIFLNKFPMLQPKLNIQNVKNNIAIIFKSLYLYMTQKKTDQKENTQQEQSIEKNEKEKSMLTYINKNMASNDDMNTIDYNLNKYNKFFIYKEDTLKLFNYFKTIINSNIADTNFLIKDYKLTTDKKQKFFYQKYAHVTFSMAISYVFH
modifications: bait human Fc-tagged dimer; N-glycosylation sequons mutated in Plasmodium baits
In the test with ADP389, B2 registered a binding score of 5.5.

B3: ADP191 (protein)
chain: IYYCNDNILENANNDDSTKDINNINKNSANKAKSEKTSNYNNDQYNIDDAYNEDEENDEEEGDDDENDHFEVPINCAGGNCFDSMDDINKIIDNKKKKMKYRRRRGKAIQIIKPNVNHAELIIIEENLEIFKRIDKPIAIVSVLGDMHTGKSFLLNLLNEHVIPDINKANKYIENGFKVGNDITASTYGIWIWSEPIRINVKKLKKIYEYINENFANFIKSYEYEKDEYNEEIIDLLNLYKTDDWISNVEELNLADTDEVNLILMDTQGLNSPNVNKRYDEILYALTNLISTDIIFLTMKMINNKDLEFIENIAKDANLFMLRAYTRSSGSTFSIKKNNFHKILDTLNNNLENNALILESIASKNLMWVVHDFSQRLDVRKGKLWLDILLNSDRRDLDIKYWKKIISNKAKDKHDAYTTKKQKIAYLTYNENSASGLLPNNNNNNNNANDASSNYKLNILYKNIDCVLLRNMYHNKEFDFTKANINDLNEEYKNDVLLLRYKIYLRALLFPKKMYSDVQINNIINKIRKEQKLREEQEKNKDNKKNDANNQANDLNSNKDETSGSQVTNRFMSGHDVYDFITFLVKSANQNLFTNVNQFFKHFKINRAEISRNDLIFLYKKYLLQFMENEDVEFISNLNDENDDLFLQKEGNNAAVNHDENSDADSLFNDHDENMQLKEHNIKDGEDNTHQKKDSYKLPPLLNEIKKYEELIREQILNIWYKYTESDFHDEEEKELIKDIENNLYERLDQIKIEMLELGEMNIRKFCKIACEDALQIVVEDIKMKSDQYPIKQKDLTTFFESVSYNLIKYLEKKLSKNSDKLDLIYYKDNICSPLINNAFQEFYFLKKKNIALNENRLKSYFSNAVEKGKEVFEVLAENTENIAEYFKNKNMFYTVLDKWTSEAINTYTLTLSDFAKEEKEINDEYLNVLNNDIKLLKQKAMEKWHNHCRDKTSALYNMHKSNLKKNFLENFNFPLDELVLQDIFLNLKGQEELKYMDIYCANEDSWNSEYKNFLKLTDEIFQFIKDENLKAIQITCQQPLDELKNGIKGEIHKYYLWSSLKSTLYNRALIVLSSNIENIYIKNQRENKIQSNLDEKYNNKNKNYKRISKDLMSKVINRWLNNDIYNVYYP
modifications: bait human Fc-tagged dimer; N-glycosylation sequons mutated in Plasmodium baits
As to B3, the binding score in the test with ADP269 was determined as 9.74.

B4: ADP183 (protein)
chain: AEEHEITHKTYFDITIDDKPLGRIVFGLYGKVAPKTVENFVSICKGTVVDGKMLHYTNSIFHRIIPNFMAQGGDITNFNGAGGLSIYGKKFEDENFKVNHAKRGLLSMANAGKNTNGAQFFILFIPTPWLDGRHVVFGEVVEGLDKLVHIEAVGTDSGEPLKRVLVKESGELPL
modifications: bait human Fc-tagged dimer; N-glycosylation sequons mutated in Plasmodium baits
On to B4, for which the binding score with ADP156 was 5.67; with ADP369 it was 6.98.

B5: ADP169 (protein)
chain: LIRNSNTPQAFLIPELNNNEKNEFNNNEKNEMNNNLNNEFNNNEENCDIQKIAEEMMENLLNENDMYTNIMLSLQNRLSDDYLCSEPKYENICIHEKDKISLSFPCSNPKYEKLIHKFTFKKLCNSKAAFNNALLKSFIEEDEEQNTFSLMLKQFKILLTCVDDELKDIYKESIDLLVDLKTSITELTQKLWSGKMVNVLKKREFLITGILCELRNGNKAPLISKSLEFENLGILKMNNEELLNEAYNAFSDYYYFFPYFIQKLLEKGGMIERLIKIHENLAKYRTKDMVNKINAQSKGEVLNNEDILNKLNAYKHYTKHGATSFIQSREVKIVNQNVNNDDTTKNQQQNVNNNEKLNNNNNNNNNQQVNNNNNNNNQQVNNNNNNNNNQVNNNNNNNNNQVNNNNYNNNNQVNNNNNNNQQVNNNNNYNNQLNNNNFNNNLQVNKNDKHVPKNNHATATHTNNILYNPLYSINPEKPKDIIKLLKDLIKYLHIVKFENNEPTTNIDEEGIRKLLENSFFDLNDDILIVRLLLKPQTVILTVIQSFMLMTPSPSRDAKAYCKKALINDQLVPTNDANILSEENELVNNFATKYVLIYEKMKLQELKEMEESKLKMKYSKTNLAALQVTNPQNNKDKNDASNKNNNPNNAATPLIAVVTDLSGEKTEDIINNNVDIATLSVGVQNTFQGP
modifications: bait human Fc-tagged dimer; N-glycosylation sequons mutated in Plasmodium baits
In the case of B5, the binding score with ADP098 amounted to 11.2.

Values taken from PMC11098746 (2024).
